In PMC7145662, “Crystal structure of the EcoKMcrA N-terminal domain (NEco): recognition of modified cytosine bases without flipping”:

Key:
[1] = target: T1, NEco (EcoKMcrA N-terminal domain) (Escherichia coli K) (UniProt P24200); experiment: competition; conditions: 5mC in CpG, both strands; EMSA: 10 nM 33P/32P 30 bp duplex, 5-2000 nM NEco; competition: 10 nM labeled C5mCGG, 10 nM NEco, 3-3000 nM unlabeled competitor; buffer, pH and temperature not …
T1 sequence: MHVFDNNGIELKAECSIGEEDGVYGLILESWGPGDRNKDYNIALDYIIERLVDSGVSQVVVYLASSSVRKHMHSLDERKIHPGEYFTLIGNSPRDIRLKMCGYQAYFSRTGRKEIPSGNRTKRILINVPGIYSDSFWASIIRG

NEco W31A [2] = target: T2, NEco W31A (Escherichia coli K, UniProt P24200 1-143, W31A); experiment: EMSA; EMSA: 10 nM 33P/32P 30 bp duplex, 5-2000 nM NEco; competition: 10 nM labeled C5mCGG, 10 nM NEco, 3-3000 nM unlabeled competitor; buffer, pH and temperature not; conditions: protein: recombinant
T2 sequence: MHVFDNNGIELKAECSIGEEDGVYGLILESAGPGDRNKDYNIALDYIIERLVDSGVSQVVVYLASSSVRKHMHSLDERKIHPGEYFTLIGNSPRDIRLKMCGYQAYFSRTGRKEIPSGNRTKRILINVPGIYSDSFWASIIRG

NEco W31Y = target: T3, NEco W31Y (Escherichia coli K, UniProt P24200 1-143, W31Y); experiment: as above; conditions: protein: recombinant
T3 sequence: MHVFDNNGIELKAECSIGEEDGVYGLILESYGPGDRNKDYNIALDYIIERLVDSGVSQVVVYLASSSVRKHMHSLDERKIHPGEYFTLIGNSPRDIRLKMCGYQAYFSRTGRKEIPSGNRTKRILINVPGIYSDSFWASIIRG

NEco W31F = target: T4, NEco W31F (Escherichia coli K, UniProt P24200 1-143, W31F); experiment: as above; conditions: protein: recombinant
T4 sequence: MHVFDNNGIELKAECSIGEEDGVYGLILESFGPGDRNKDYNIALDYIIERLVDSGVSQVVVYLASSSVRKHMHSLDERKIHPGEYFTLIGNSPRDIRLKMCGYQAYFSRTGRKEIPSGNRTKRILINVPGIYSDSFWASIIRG

NEco S30A = target: T5, NEco S30A (Escherichia coli K, UniProt P24200 1-143, S30A); experiment: as above; conditions: protein: recombinant
T5 sequence: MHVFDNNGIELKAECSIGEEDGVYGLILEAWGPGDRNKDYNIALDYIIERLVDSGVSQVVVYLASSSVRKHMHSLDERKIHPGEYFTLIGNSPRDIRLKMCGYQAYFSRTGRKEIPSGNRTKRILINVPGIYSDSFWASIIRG

NEco W31S = target: T6, NEco W31S (Escherichia coli K, UniProt P24200 1-143, W31S); experiment: as above; conditions: protein: recombinant
T6 sequence: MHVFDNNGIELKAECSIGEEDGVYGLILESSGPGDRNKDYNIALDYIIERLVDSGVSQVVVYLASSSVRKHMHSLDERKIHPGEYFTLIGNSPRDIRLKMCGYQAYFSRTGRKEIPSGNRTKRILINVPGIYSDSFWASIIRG

NEco S30L = target: T7, NEco S30L (Escherichia coli K, UniProt P24200 1-143, S30L); experiment: as above; conditions: protein: recombinant
T7 sequence: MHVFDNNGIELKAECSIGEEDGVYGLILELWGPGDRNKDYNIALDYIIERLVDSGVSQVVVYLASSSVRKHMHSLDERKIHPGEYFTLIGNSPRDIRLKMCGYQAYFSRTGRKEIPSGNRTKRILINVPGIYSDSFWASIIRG

NEco W31L = target: T8, NEco W31L (Escherichia coli K, UniProt P24200 1-143, W31L); experiment: as above; conditions: protein: recombinant
T8 sequence: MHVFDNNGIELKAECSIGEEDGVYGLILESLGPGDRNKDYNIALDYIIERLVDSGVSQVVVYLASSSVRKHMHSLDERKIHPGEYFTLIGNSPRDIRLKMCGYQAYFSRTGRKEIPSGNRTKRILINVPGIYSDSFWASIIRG

NEco S30V = target: T9, NEco S30V (Escherichia coli K, UniProt P24200 1-143, S30V); experiment: as above; conditions: protein: recombinant
T9 sequence: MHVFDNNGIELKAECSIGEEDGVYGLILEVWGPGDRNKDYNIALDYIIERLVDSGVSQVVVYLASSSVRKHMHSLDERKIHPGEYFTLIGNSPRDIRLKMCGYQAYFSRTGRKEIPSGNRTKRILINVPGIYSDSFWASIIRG

NEco W31I = target: T10, NEco W31I (Escherichia coli K, UniProt P24200 1-143, W31I); experiment: as above; conditions: protein: recombinant
T10 sequence: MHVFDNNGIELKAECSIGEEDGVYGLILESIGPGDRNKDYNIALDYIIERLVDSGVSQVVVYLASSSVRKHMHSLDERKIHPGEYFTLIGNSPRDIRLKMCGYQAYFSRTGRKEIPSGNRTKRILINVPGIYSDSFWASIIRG

NEco N119A = target: T11, NEco N119A (Escherichia coli K, UniProt P24200 1-143, N119A); experiment: as above; conditions: protein: recombinant
T11 sequence: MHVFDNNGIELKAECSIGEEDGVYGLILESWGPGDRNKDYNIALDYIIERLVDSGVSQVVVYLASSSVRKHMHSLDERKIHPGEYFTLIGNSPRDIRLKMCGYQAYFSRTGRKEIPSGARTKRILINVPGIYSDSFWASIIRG

NEco W31V = target: T12, NEco W31V (Escherichia coli K, UniProt P24200 1-143, W31V); experiment: as above; conditions: protein: recombinant
T12 sequence: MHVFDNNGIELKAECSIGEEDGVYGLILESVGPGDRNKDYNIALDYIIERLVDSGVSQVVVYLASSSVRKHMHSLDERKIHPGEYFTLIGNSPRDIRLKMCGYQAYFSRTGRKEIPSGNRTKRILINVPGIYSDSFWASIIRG

[3] = target: T13, NEco (EcoKMcrA N-terminal domain) (Escherichia coli K, UniProt P24200 1-143); experiment: competition; EMSA: 10 nM 33P/32P 30 bp duplex, 5-2000 nM NEco; competition: 10 nM labeled C5mCGG, 10 nM NEco, 3-3000 nM unlabeled competitor; buffer, pH and temperature not; conditions: protein: recombinant
T13 sequence: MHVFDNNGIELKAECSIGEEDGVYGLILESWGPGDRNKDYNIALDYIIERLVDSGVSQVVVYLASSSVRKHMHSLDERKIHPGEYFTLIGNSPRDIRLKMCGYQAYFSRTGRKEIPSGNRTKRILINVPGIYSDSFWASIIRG

NEco W31A [4] = target: T2, NEco W31A; experiment: EMSA; discrete complexes, unlike wt; EMSA: 10 nM 33P/32P 30 bp duplex, 5-2000 nM NEco; competition: 10 nM labeled C5mCGG, 10 nM NEco, 3-3000 nM unlabeled competitor; buffer, pH and temperature not; conditions: protein: recombinant
NEco W31H = target: T14, NEco W31H (Escherichia coli K, UniProt P24200 1-143, W31H); experiment: competition; EMSA: 10 nM 33P/32P 30 bp duplex, 5-2000 nM NEco; competition: 10 nM labeled C5mCGG, 10 nM NEco, 3-3000 nM unlabeled competitor; buffer, pH and temperature not; conditions: protein: recombinant
T14 sequence: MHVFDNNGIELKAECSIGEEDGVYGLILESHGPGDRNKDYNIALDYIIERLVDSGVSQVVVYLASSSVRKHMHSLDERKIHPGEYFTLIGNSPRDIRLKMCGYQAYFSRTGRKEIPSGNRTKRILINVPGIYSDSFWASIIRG

[5] = target: T13, NEco (EcoKMcrA N-terminal domain); experiment: as above; conditions: protein: recombinant; remark: listed apart in the source

## AGACCCACGCTCAGCGGTTCCAGATTTATC (double strand) [30 bp G5mCGG/C5mCGC]
[1]
  binding signal (fold lower affinity than C5mCGG): 100

## AGACCCACGCTCAGCGCTTCCAGATTTATC (double strand) [30 bp G5mCGC]
[1]
  binding signal (fold lower affinity than G5mCGG/C5mCGC): > 25

B1: 30 bp C5mCGG fully methylated (dsDNA)
DNA 1: AGACCCACGCTCACCGGTTCCAGATTTATC
DNA 2: GATAAATCTGGAACCGGTGAGCGTGGGTCT
modifications: 5mC at inner C of CCGG, both strands
NEco W31A [2]
  binding result: binds
NEco W31Y
  binding result: binds
NEco W31F
  binding result: binds
NEco S30A
  binding result: binds
NEco W31S
  binding result: binds
NEco S30L
  binding signal: > 50 fold decreased vs wt NEco
NEco W31L
  binding signal: > 50 fold decreased vs wt NEco
NEco S30V
  binding signal: > 50 fold decreased vs wt NEco
NEco W31I
  binding signal: > 50 fold decreased vs wt NEco
NEco N119A
  binding signal: ~40 fold impaired vs wt NEco
NEco W31V
  binding signal: > 50 fold decreased vs wt NEco

B2: 30 bp CTGG/C5mCGG (T:G mismatch) (dsDNA)
DNA 1: AGACCCACGCTCACTGGTTCCAGATTTATC
DNA 2: GATAAATCTGGAACCGGTGAGCGTGGGTCT
modifications: 5mC in one strand
[3]; T:G mismatch
  binding signal: ~500 fold lower affinity than C5mCGG

B3: 30 bp CCGG hemi-methylated (dsDNA)
DNA 1: AGACCCACGCTCACCGGTTCCAGATTTATC
DNA 2: GATAAATCTGGAACCGGTGAGCGTGGGTCT
modifications: 5mC at inner C of CCGG, one strand
NEco W31A [4]
  binding result: binds
NEco W31H
  binding signal: ~35 fold lower affinity than fully methylated (same variant)
[5]
  binding signal: ~230 fold lower affinity than fully methylated

B4: 30 bp CTGG/C5mCAG (T:A pair) (dsDNA)
DNA 1: AGACCCACGCTCACTGGTTCCAGATTTATC
DNA 2: GATAAATCTGGAACCAGTGAGCGTGGGTCT
modifications: 5mC in one strand
[3]
  binding signal: > 2000 fold lower affinity than C5mCGG

B5: 30 bp CCGG non-methylated (dsDNA)
DNA 1: AGACCCACGCTCACCGGTTCCAGATTTATC
DNA 2: GATAAATCTGGAACCGGTGAGCGTGGGTCT
[5]
  binding signal: ~10 fold lower affinity than hemi-methylated

B6: 30 bp C5hmCGG fully hydroxymethylated (dsDNA)
DNA 1: AGACCCACGCTCACCGGTTCCAGATTTATC
DNA 2: GATAAATCTGGAACCGGTGAGCGTGGGTCT
modifications: 5hmC at inner C of CCGG, both strands
[5]
  binding signal: ~40 fold lower affinity than fully methylated
